From US20260275319A1, “ARCHAEAL PEPTIDE RECOMBINASE – A NOVEL PEPTIDE LIGATING ENZYME” (MAX-PLANCK-GESELLSCHAFT ZUR FÖRDERUNG DER WISSENSCHAFTEN …, priority 2019, published 2026)

Experiments:
(15)KDPGA(0) = experiment: microscale thermophoresis (MST); table row (15)KDPGA(0)
(15)KDPGA(5) = experiment: microscale thermophoresis (MST); table row (15)KDPGA(5)

B1: M. jannaschii Adriase S1A mutant with C-terminal His-tag, Q57968 3-293 (enzyme)
chain: ALIICYYGKNGAVIGGDRRQIFFRGSEENRKILEEKLYSGEIKSEEELYKLAEKLNIKIIIEDDREKVRKISDSVVCGEVRSLGIDAKRRRVYATKGKCAIVDILNDTVTNQTIKEGFGIVVLGNRFLKKKAEEELKRTAKLFPMMPIQQIEDAIKEIFEKLKWHPTVSKEYDIYSVNKYEKNFEEVIKKDIESLFKYREQLRKQLIDFGKVMSIVNKIVKNGEIGVIKDGKLHLYDDYIAIDKIDPNPKVFKVVDVEGNFKDGDIVVIENGDMKIKGTNEKVTTKYIIIHKGSHHHHHH
B1 showed a Kd ((15)KDPGA(0)) of over 20 µM and a Kd ((15)KDPGA(5)) of over 20 µM.
